Positions count from the first letter of the chain named.

B1: suPAR_DB02_B06 (scFv, V domains shown)
VH: QVQLVQSGAEVKKPGASVKVSCKASGDTFTSYYMHWVRQAPGQGLEWMGWIDHEGGSTIYAQQFQGRVTMTRDTSTSTVYMELSSLRSEDTAVYYCARGYDVDWFVYWGQGTLVTVSS
VL: DIQMTQSPSSLSASVGDRVTITCSARSSVSYMYWYQQKPGKAPKLLIYRTSNLASGVPSRFSGSGSGTDFTLTISSLQPEDFATYYCQQYHSYPPTFGGGTKVEIK
notes: Screened as scFv
B2: suPAR_DB01_H08 (scFv, V domains shown)
VH: QVQLVQSGAEVKKPGASVKVSCKASGFNIKDYYIHWVRQAPGQGLEWMGWIDPNGGGTQYAQKFQGRVTMTRDTSTSTVYMELSSLRSEDTAVYYCARGYDVDWFVYWGQGTLVTVSS
VL: B1 VL with S24R, R26S, A54Q
notes: Screened as scFv
B3: suPAR_DB02_C05 (scFv, V domains shown)
VH: B1 VH with D27G, T30S, G55N, S57N, A61D, Q63K
VL: B1 VL
notes: Screened as scFv
B4: suPAR_DB02_B07 (scFv, V domains shown)
VH: B1 VH with D27H, T30S, H53P, G55N, S57N, Q63K
VL: B1 VL with S27Q, V29I
notes: Screened as scFv
B5: suPAR_DB02_C01 (scFv, V domains shown)
VH: B1 VH with D27Y, S31G, H53P, G55N, A61D, Q63K
VL: B1 VL with S24R, S27Q
notes: Screened as scFv
B6: suPAR_DB02_B09 (scFv, V domains shown)
VH: B1 VH with D27Y, S31G, M34V, E54S, G55N, S57N, A61D, Q63K, R98S
VL: B1 VL
notes: Screened as scFv
B7: suPAR_DB02_C04 (scFv, V domains shown)
VH: B2 VH with P53H, N54E, G57S, Q59S, A61D
VL: B1 VL
notes: Screened as scFv
B8: suPAR_DB02_B10 (scFv, V domains shown)
VH: B1 VH with D27Y, S31N, H53P, G55N, S57N, I59S, A61D, Q63K
VL: B1 VL with S24R, S27Q
notes: Screened as scFv
B9: suPAR_DB02_C02 (scFv, V domains shown)
VH: B1 VH with D27Y, T30K, G55N, S57N, A61D, Q63K, R98S
VL: B1 VL
notes: Screened as scFv
B10: suPAR_DB02_B08 (scFv, V domains shown)
VH: B1 VH with D27Y, T28S, S31N, G55N, I59S, A61D, Q63K
VL: B1 VL
notes: Screened as scFv
B11: suPAR_DB05_B12 (scFv, V domains shown)
VH: B1 VH with D27Y, S31N, H53P, G55N, S57N, Q63K
VL: B1 VL with S27Q
notes: Screened as scFv
B12: suPAR_DB05_A10 (scFv, V domains shown)
VH: B1 VH with D27Y, S31N, M34I, H53P, E54S, G55N, S57N, A61D, Q63K
VL: B1 VL
notes: Screened as scFv
B13: suPAR_DB05_B02 (scFv, V domains shown)
VH: B2 VH with F27Y, N28T, N54E, G55N, G57N, Q59I
VL: B1 VL
notes: Screened as scFv
B14: suPAR_DB05_A06 (scFv, V domains shown)
VH: B1 VH with D27Y, Y32H, M34V, G55N, S57N, A61D, Q63K
VL: B1 VL
notes: Screened as scFv
B15: suPAR_DB04_H05 (scFv, V domains shown)
VH: B1 VH with D27H, F29L, T30N, H53P, S57N, Q63K
VL: B1 VL
notes: Screened as scFv
B16: suPAR_DB05_B08 (scFv, V domains shown)
VH: B1 VH with D27N, T28A, T30S, S31G, Y32H, M34V, G55N, S57N, Q63K
VL: B1 VL with S27Q
notes: Screened as scFv
B17: suPAR_DB05_B01 (scFv, V domains shown)
VH: B1 VH with D27Y, T28P, G55N, S57N, A61D, Q63K
VL: B1 VL with R26S
notes: Screened as scFv
B18: suPAR_DB05_B11 (scFv, V domains shown)
VH: B1 VH with D27Y, T30S, S31A, G55N, S57N, Q63K
VL: B1 VL
notes: Screened as scFv
B19: suPAR_DB04_H10 (scFv, V domains shown)
VH: B1 VH with D27Y, D52S, H53P, E54D, G55S, S57G, I59N, Q63K
VL: B1 VL with S24R
notes: Screened as scFv
B20: suPAR_DB05_C03 (scFv, V domains shown)
VH: B1 VH with D27Y, S31N, S57N, I59S, Q63K
VL: B1 VL with S24R
notes: Screened as scFv
B21: suPAR_DB05_A11 (scFv, V domains shown)
VH: B1 VH with D27Y, S31G, H53P, E54N, G55S, S57G, I59N, Q63K
VL: B1 VL
notes: Screened as scFv
B22: suPAR_DB05_B04 (scFv, V domains shown)
VH: B1 VH with D27Y, S31T, H53P, E54S, G55N, S57N, A61D, Q63K
VL: B1 VL
notes: Screened as scFv
B23: suPAR_DB05_A08 (scFv, V domains shown)
VH: B1 VH with D27Y, S31N, H53S, E54N, G55S, S57G, I59N, Q63K
VL: B1 VL
notes: Screened as scFv
B24: suPAR_DB05_A05 (scFv, V domains shown)
VH: B1 VH with D27Y, S31N, H53P, E54S, I59S, Q63K
VL: B1 VL with S24R, S27Q
notes: Screened as scFv
B25: suPAR_DB05_B09 (scFv, V domains shown)
VH: B1 VH with D27Y, S31G, H53P, E54S, S57N, A61D, Q63K
VL: B1 VL
notes: Screened as scFv
B26: suPAR_DB05_B03 (scFv, V domains shown)
VH: B1 VH with D27Y, M34I, M48I, I51M, H53P, E54N, G55S, T58A, I59A, Q63K
VL: B1 VL
notes: Screened as scFv
B27: suPAR_DB04_H07 (scFv, V domains shown)
VH: B1 VH with D27Y, G55N, S57N, I59S, A61D, Q63K
VL: B1 VL with S24R
notes: Screened as scFv
B28: suPAR_DB05_B05 (scFv, V domains shown)
VH: B1 VH with D27N, T30S, S31G, M34V, H53P, E54S, G55N, S57N, A61D, Q63K
VL: B1 VL
notes: Screened as scFv
B29: suPAR_DB04_H06 (scFv, V domains shown)
VH: B1 VH with D27Y, S31N, M34V, G55N, S57N, I59S, Q63K
VL: B1 VL with A54Q
notes: Screened as scFv
B30: suPAR_DB05_B06 (scFv, V domains shown)
VH: B1 VH with D27Y, T28P, S31N, A61D, Q63K
VL: B1 VL with R26S, S27Q
notes: Screened as scFv
B31: suPAR_DB04_H03 (scFv, V domains shown)
VH: B1 VH with D27Y, S31G, Y32N, M34L, E54S, G55N, A61D, Q63K, Y100S
VL: B1 VL with R26S
notes: Screened as scFv
B32: suPAR_DB04_H09 (scFv, V domains shown)
VH: QVQLVQSGAEVKKPGASVKVSCKASGGTFSGYYMHWVRQAPGQGLEWVGWITPDSGATAYAQKFQGRVTMTRDTSTSTVYMELSSLRSEDTAVYYCARGYDVDWFVYWGQGTLVTVSS
VL: B1 VL with S27Q
notes: Screened as scFv
B33: suPAR_DB04_H08 (scFv, V domains shown)
VH: B32 VH with G27Y, G31D, M34I, V48M, T52S, D54K, A57V, A59N
VL: B1 VL with R26S, S27Q
notes: Screened as scFv
B34: suPAR_DB05_C02 (scFv, V domains shown)
VH: B1 VH with H53P, E54S, G55N, S57N, A61D, Q63K
VL: B1 VL
notes: Screened as scFv
B35: suPAR_DB05_A07 (scFv, V domains shown)
VH: B1 VH with D27Y, S31N, H35Q, G55N, S57N, Q63K
VL: B1 VL with S27Q
notes: Screened as scFv

T3 sequence (Q9GK78 23-303 limits assumed): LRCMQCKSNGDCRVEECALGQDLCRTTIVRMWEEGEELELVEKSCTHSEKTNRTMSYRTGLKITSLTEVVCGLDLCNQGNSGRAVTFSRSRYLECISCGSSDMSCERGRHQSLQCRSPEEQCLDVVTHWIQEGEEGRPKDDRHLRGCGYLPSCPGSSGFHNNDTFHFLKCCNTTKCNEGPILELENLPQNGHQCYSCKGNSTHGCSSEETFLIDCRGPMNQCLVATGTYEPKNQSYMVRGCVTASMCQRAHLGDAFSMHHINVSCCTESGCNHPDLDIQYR

For the first experiment, the target named is T1, human soluble urokinase plasminogen activator receptor (hsuPAR) (human, UniProt Q03405 23-303, limits assumed).
T1 construct: also called human suPAR; rhuPAR-His
T1 sequence (Q03405 23-303 limits assumed): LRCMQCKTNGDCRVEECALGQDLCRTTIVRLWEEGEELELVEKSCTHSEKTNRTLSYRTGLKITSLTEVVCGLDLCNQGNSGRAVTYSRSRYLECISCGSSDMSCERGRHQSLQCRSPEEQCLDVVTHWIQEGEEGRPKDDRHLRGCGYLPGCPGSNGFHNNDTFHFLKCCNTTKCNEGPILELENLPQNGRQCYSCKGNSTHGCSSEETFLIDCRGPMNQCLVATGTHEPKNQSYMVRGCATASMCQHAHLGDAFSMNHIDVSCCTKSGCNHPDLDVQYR
In words: BLI (Octet) off-rate screen of scFv.
Broadly, the koff is a measure of how fast the partners let go of each other. A low value points to a long-lived complex. With B1, the off-rate constant (koff) amounted to 0.00353 s⁻¹.

In turn, B2 yielded a koff of 0.00281 s⁻¹.

As for B3, the koff was 0.00504 s⁻¹.

Turning to B4, the koff worked out at 0.00447 s⁻¹.

In the case of B5, the koff worked out at 0.00465 s⁻¹.

As to B6, the koff amounted to 0.00422 s⁻¹.

Take B7: the koff turned out to be 0.00128 s⁻¹.

B8 displayed a koff of 0.00189 s⁻¹.

As for B9, the koff was found to be 0.00429 s⁻¹.

The molecule B10 came in with a koff of 0.00155 s⁻¹.

For the next experiment, the target named is T2, cynomolgus soluble urokinase plasminogen activator receptor (cynomolgus suPAR) (cynomolgus, UniProt Q9GK78 23-303, limits assumed).
T2 construct: also called cynomolgus uPAR; cynoPLAUR-His
T2 sequence (Q9GK78 23-303 limits assumed): as the sequence (Q9GK78 23-303 limits assumed) above
Nature of the experiment: BLI (Octet) off-rate screen of scFv. On the technique in general: BLI is a label-free optical method that tracks binding on a fibre tip over time.
The molecule B1 displayed a koff of 0.000127 s⁻¹.

On to B2, for which the koff came to 0.00038 s⁻¹.

Molecule B3 came in with a koff of 0.000285 s⁻¹.

As for B4, the koff was determined as 8.12e-05 s⁻¹.

Turning to B5, the koff was 0.00025 s⁻¹.

Turning to B6, the dissociation rate constant (koff) came to 0.000208 s⁻¹.

The molecule B7 registered a koff of 0.00132 s⁻¹.

Molecule B8 registered a koff of 0.000434 s⁻¹.

For the molecule B9, the koff worked out at 3.58e-05 s⁻¹.

Regarding B10, the koff turned out to be 8.61e-05 s⁻¹.

Another experiment concerns the target T3, cynomolgus soluble urokinase plasminogen activator receptor (suPAR) (cynomolgus, UniProt Q9GK78 23-303, limits assumed).
T3 construct: Column head says only 'cynomologus'; also called cynomolgus suPAR; cynomolgus uPAR
Nature of the experiment: BLI (Octet) off-rate screen of scFv clones.
B11 yielded an off-rate (koff) of 0.000383 s⁻¹.

Molecule B12 showed a koff of 0.000462 s⁻¹.

For B13, the koff came to 0.000419 s⁻¹.

In the case of B14, the koff was 0.000277 s⁻¹.

Molecule B15 yielded a dissociation rate constant (koff) of 0.000182 s⁻¹.

As for B16, the koff stood at 0.000129 s⁻¹.

Molecule B17 gave a koff of 0.000232 s⁻¹.

Consider B18, for which the koff amounted to 0.000431 s⁻¹.

For B19, the koff was 0.000323 s⁻¹.

B20 had an off-rate (koff) of 0.000455 s⁻¹.

The molecule B21 showed a koff of 0.000311 s⁻¹.

Take B22: the koff was determined as 0.000606 s⁻¹.

The molecule B23 gave a koff of 9.8e-05 s⁻¹.

The molecule B24 returned a koff of 0.000639 s⁻¹.

In turn, B25 displayed a koff of 0.000583 s⁻¹.

As for B26, the koff came to 0.000311 s⁻¹.

As to B27, the koff amounted to 0.000249 s⁻¹.

B28 showed a koff of 0.000193 s⁻¹.

In the case of B29, the koff was determined as 0.000289 s⁻¹.

Molecule B30 came in with a koff of 0.000234 s⁻¹.

Turning to B31, the koff turned out to be 0.000226 s⁻¹.

As for B32, the koff amounted to 8.8e-05 s⁻¹.

Turning to B33, the koff worked out at 5.42e-07 s⁻¹.

For the molecule B34, the off-rate constant (koff) was 0.00061 s⁻¹.

Molecule B35 returned a koff of 0.00029 s⁻¹.

The target in the next experiment is T4, human soluble urokinase plasminogen activator receptor (suPAR) (human, UniProt Q03405 23-303, limits assumed).
T4 construct: Column head says only 'human'; also called hsuPAR; human suPAR
T4 sequence (Q03405 23-303 limits assumed): as the sequence (Q03405 23-303 limits assumed) above
In words: BLI (Octet) off-rate screen of scFv clones.
For the molecule B11, the koff was 0.00472 s⁻¹.

Regarding B12, the koff is 0.00541 s⁻¹.

Consider B13, for which the koff was 0.00565 s⁻¹.

With B14, the koff was 0.00352 s⁻¹.

Regarding B15, the koff is 0.00584 s⁻¹.

Take B16: the koff worked out at 0.00488 s⁻¹.

The molecule B17 yielded a koff of 0.00356 s⁻¹.

Consider B18, for which the koff was 0.00219 s⁻¹.

Regarding B19, the koff came to 0.00354 s⁻¹.

With B20, the koff was 0.00367 s⁻¹.

For B21, the koff was found to be 0.0018 s⁻¹.

The molecule B22 registered a koff of 0.00623 s⁻¹.

The molecule B23 returned a koff of 0.00307 s⁻¹.

Molecule B24 came in with a koff of 0.00553 s⁻¹.

The molecule B25 returned a koff of 0.00273 s⁻¹.

In turn, B26 returned a koff of 0.00366 s⁻¹.

In the case of B27, the dissociation rate constant (koff) was determined as 0.00511 s⁻¹.

Molecule B28 displayed a koff of 0.00417 s⁻¹.

Take B29: the koff turned out to be 0.00926 s⁻¹.

B30 gave an off-rate constant (koff) of 0.00213 s⁻¹.

For the molecule B31, the koff amounted to 0.00134 s⁻¹.

For B32, the koff was determined as 0.00475 s⁻¹.

On to B33, for which the dissociation rate constant (koff) came to 0.0034 s⁻¹.

With B34, the off-rate constant (koff) is 0.00375 s⁻¹.

As for B35, the koff is 0.00495 s⁻¹.

These data come from US20250215104A1 (WALDEN BIOSCIENCES, published 2025).
